Data published in patent US20250304927A1, “PRO-PEPTIDE VARIANTS FOR MODULATING ACTIVITY OF TRANSGLUTAMINASES” (CURIE CO. INC., priority 2022, published 2025).

Key:
E. coli ATCC 8739 = experiment: MIC determination of bacterial cultures (OD600); assay type: cell-based; settings: E. coli ATCC 8739, Mueller Hinton broth
Method: E. coli ATCC 8739 and C. albicans ATCC 10231 were acquired from the American Type Culture Collection (ATCC) (Manassas, VA) and maintained as −80° C. frozen glycerol stocks.
For Minimum Inhibitor Concentration (MIC) determination of bacterial cultures, E. coli ATCC 8739 was grown overnight (16-18 hours) in Mueller Hinton broth at 37° C. The following day, the cell density of the saturated cultures was calculated using OD600 and cultures were diluted to 10^4 to 10^6 CFU/mL in sterile Mueller Hinton broth to generate the inoculum, and 100 μL of the inoculum was combined with 100 μL of serially diluted transglutaminase variant at a range of 0.0001-0.05 weight percent. Growth curves were measured by OD600 on a BioTek® Synergy Plate Reader. All test conditions were performed in triplicate. MIC was determined to be 50 ppm (0.005% w/v) against E. coli for the enzyme described in SEQ ID NO: 5 using OD600.

[1] = molecular target: T1, thermostable mature transglutaminase variant (SEQ ID NO: 3) (Streptomyces mobaraensis, UniProt P81453); experiment: pH-responsiveness screen: casein/dansylcadaverine assay at pH 6.0 and pH 8.0 in the presence of pro-peptide variants (Method A); assay type: biochemical; settings: casein assay
T1 construct: made in house; host or cells: E. coli (lysate)
From the text: (§1) Method A. A bicistronic expression vector encoding the wild-type pro-domain of transglutaminase (SEQ ID NO: 2) and a thermostable mature transglutaminase variant (SEQ ID NO: 3) as separate polypeptides was cloned as described in PCT/US20/49226 (WO2021/178001 A1). The vector was used as a template for synthesis of a random mutagenesis library targeting the pro-domain coding sequence to create pro-domain peptide variants.
Method A. Plasmid libraries containing mature transglutaminase and variant pro-domain peptides were plated on Luria-Bertani (LB) agar plates containing 50 μg/mL of kanamycin. […]
(§2) A secondary screen was performed to determine initial rate of transglutaminase in the presence of the pro-peptide variants using transglutaminase-catalyzed labeling of casein with dansylcadaverine (e.g., a commercially available kit such as the Transglutaminase Fluorogenic Activity Assay Kit, T036, Zedira, Germany). Transglutaminase activity was monitored by measuring the fluorescence (excitation wavelength 332 nm; emission wavelength 500 nm) using a BioTek Synergy H1 microplate reader. Transglutaminase-catalyzed covalent coupling (crosslinking) of monodansylcadaverine with N,N-dimethylcasein produces a product that causes a shift in intensity and wavelength of fluorescence of the dansyl group now linked to the casein. […]

[2] = molecular target: T1, thermostable mature transglutaminase variant (SEQ ID NO: 3); assay type: biochemical; settings: casein assay; Method A
From the text: as §1
Method A. Plasmid libraries containing mature transglutaminase and variant pro-domain peptides were plated on Luria-Bertani (LB) agar plates containing 50 μg/mL of kanamycin. After incubation for at least 16 hours at 37° C., colonies were picked and inoculated into 1 mL of LB broth with 50 μg/mL kanamycin in one well of a 96 deep well culture plate. The plate was covered with a breathable seal and incubated overnight at 37° C. with 400 rpm of shaking. 10 μL of the seed culture was used to inoculate 1 mL of media in a 96 deep well culture plate for expression. The expression plate was allowed to grow for 6-8 hours at 30° C. Expression was then induced by adding isopropyl beta-D-1-thiogalactopyranoside (IPTG) to a final concentration of 1 mM and the temperature was reduced to 20° C. while growth continued for an additional 15 hours. Cells were harvested by centrifugation at 4000 rcf for 30 minutes and pellets were frozen at −80° C.
as §2, with “casein. The relative transglutaminase activity is shown by increase of fluorescence intensity over time. The data were normalized for transglutaminase expression levels in E. coli lysate as described above. Pro-domain variants were identified based on their ability to alter the activity of the mature transglutaminase enzyme.” for “casein.”
It is believed that these pro-peptide variants have reduced binding affinity with mature mTgase.

Molecule | MIC (E. coli ATCC 8739) | activity at pH 6.0 relative to pH 8.0 compared to the wild-type pro-peptide [1] | transglutaminase activity relative to the wild-type pro-peptide [2]
SEQ ID NO: 3: thermostable variant of Streptomyces mobaraensis transglutaminase (protein) MDPDDRVTPPAEPLDRMPDPYRPSYGRAETVVNNYIRKWQQVYSHRDGRKQQMTEEQREWLSYGCVGVTWVNSGQYPTNRLAFASFDEDRFKNELKNGRPRSGETRAEFEGRVAKESFDEEKGFQRAREVASVMNRALENAHDESAYLDNLKKELANGNDALRNEDARSPFYSALRNTPSFKERNGGNHDPSRMKAVIYSKHFWSGQDRSSSADKRKYGDPDAFRPAPGTGLVDMSRDRNIPRSPTSPGEGFVNFDYGWFGAQTEADADKTVWTHGNHYHAPNGSLGAMHVYESKFRNWSEGYSDFDRGAYVITFIPKSWNTAPDKVKQGWP | outside the range of detection |  | 
SEQ ID NO: 4 (protein) MDNGAGEETKSYAETYRLTADDVLNINAETYRLTADDVRNINALNESAPAASSAGPSFRAP |  | increase in activity at pH 6.0 relative to pH 8.0 compared to the wild-type pro-peptide | decrease in transglutaminase activity relative to the wild-type pro-peptide
